Assay [1] has as its target BMP10 (human (by the printed accession)) (UniProt O95393).
Assay [2] has as its target BMPR2 GBD-Fc (WT) (human) (UniProt Q13873). As to the kind of experiment: SPR; BIAcore 3000; receptor-Fc (about 500 RU BMPR2-Fc WT or variants, 150 RU ACVR2A-Fc) captured on immobilised anti-human IgG (Fc), CM5 chip; single injections of 80 nM GF, single curve fits, averages of two independent injections; 25 °C; HBS/EPS (0.01 M Hepes, 0.5 M NaCl, 3 mM EDTA, 0.005% Tween 20, pH 7.4) with 0.1% bovine serum albumin; 50 μl/min; 1:1 binding model, KD = kd/ka. (Surface plasmon resonance follows binding to a sensor surface in real time, without labels.)

Assay [3] has as its target BMP10 (human (by the printed accession)) (UniProt O95393). This is another data set of the same source.
Assay [4] concerns the target ACVR2A GBD-Fc (human) (UniProt P27037). As to the kind of experiment: SPR; BIAcore 3000; receptor-Fc captured on immobilised anti-human IgG (Fc), CM5 chip; titration, global fit of 2.5, 5.0, 10.0, 20.0 and 40.0 nM GF injections; 25 °C; HBS/EPS (0.01 M Hepes, 0.5 M NaCl, 3 mM EDTA, 0.005% Tween 20, pH 7.4) with 0.1% bovine serum albumin; 50 μl/min; 1:1 binding model, KD = kd/ka.

The target is the same in assay [5]. The assay can be described thus: SPR; BIAcore 3000; receptor-Fc (about 500 RU BMPR2-Fc WT or variants, 150 RU ACVR2A-Fc) captured on immobilised anti-human IgG (Fc), CM5 chip; single injections of 80 nM GF, single curve fits, averages of two independent injections; 25 °C; HBS/EPS (0.01 M Hepes, 0.5 M NaCl, 3 mM EDTA, 0.005% Tween 20, pH 7.4) with 0.1% bovine serum albumin; 50 μl/min; 1:1 binding model, KD = kd/ka.

The target of assay [6] is activin B (human (by the printed accession)) (UniProt P09529).

The text below walks through data of article PMC9234707.

pKd: −log10 of the molar value.

As a reminder, the pKd is the negative decadic logarithm of the Kd, by convention in mol/L. Read a high pKd as a small Kd. One may read the koff as the first-order rate constant of dissociation. What is called kon is the rate constant with which the complex forms. A high value points to fast association.

Chain of ACVR2A GBD-Fc (human) (P27037 whole entry): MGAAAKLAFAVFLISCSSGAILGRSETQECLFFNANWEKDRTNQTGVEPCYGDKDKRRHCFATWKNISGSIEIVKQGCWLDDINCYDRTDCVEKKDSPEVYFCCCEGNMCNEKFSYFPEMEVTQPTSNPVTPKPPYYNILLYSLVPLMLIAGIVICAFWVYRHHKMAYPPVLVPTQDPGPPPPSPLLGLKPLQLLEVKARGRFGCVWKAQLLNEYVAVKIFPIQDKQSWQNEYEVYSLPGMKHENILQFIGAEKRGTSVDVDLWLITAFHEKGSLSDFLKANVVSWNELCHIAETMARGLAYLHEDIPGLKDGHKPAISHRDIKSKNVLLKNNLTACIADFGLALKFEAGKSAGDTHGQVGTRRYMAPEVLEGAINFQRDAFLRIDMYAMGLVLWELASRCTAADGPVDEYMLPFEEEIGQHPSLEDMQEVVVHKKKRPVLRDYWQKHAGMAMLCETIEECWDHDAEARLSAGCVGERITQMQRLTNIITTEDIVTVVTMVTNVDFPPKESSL
Chain of BMPR2 GBD-Fc (WT) (human) (Q13873 whole entry): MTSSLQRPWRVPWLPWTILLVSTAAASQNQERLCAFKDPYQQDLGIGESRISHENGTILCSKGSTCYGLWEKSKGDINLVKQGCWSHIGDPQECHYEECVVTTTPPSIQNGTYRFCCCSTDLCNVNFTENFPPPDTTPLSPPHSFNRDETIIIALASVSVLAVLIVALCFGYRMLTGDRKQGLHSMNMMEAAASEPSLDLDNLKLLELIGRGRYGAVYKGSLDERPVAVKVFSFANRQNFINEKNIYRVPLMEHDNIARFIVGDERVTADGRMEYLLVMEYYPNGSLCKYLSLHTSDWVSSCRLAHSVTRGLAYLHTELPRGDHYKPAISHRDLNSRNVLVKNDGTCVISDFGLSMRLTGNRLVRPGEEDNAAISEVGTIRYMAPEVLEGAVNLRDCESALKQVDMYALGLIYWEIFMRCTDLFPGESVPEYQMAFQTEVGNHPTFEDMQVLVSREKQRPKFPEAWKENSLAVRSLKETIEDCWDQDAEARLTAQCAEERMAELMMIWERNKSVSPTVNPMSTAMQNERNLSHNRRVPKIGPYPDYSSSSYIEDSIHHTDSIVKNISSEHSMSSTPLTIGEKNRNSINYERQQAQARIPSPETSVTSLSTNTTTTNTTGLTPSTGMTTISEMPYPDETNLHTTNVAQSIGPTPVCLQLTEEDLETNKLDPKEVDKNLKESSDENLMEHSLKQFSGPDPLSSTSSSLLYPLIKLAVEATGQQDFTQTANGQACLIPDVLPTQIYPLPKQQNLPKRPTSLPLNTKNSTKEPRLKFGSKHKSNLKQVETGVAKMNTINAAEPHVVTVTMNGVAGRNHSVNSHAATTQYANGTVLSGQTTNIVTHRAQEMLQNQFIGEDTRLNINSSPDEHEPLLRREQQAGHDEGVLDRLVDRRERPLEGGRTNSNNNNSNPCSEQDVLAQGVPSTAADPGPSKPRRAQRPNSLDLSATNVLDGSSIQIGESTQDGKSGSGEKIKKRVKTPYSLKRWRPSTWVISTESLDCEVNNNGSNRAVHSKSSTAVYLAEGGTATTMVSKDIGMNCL
Chain of BMP10 (human (by the printed accession)) (O95393 317-424): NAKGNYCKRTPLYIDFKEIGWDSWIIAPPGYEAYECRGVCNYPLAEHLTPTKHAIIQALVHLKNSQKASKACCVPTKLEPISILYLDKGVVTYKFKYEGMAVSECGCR
Chain of BMP7 (P18075 293-431): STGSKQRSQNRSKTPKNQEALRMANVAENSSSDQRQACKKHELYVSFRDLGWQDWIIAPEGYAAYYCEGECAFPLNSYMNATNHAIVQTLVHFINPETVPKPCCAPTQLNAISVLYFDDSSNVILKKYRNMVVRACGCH
Chain of activin B (human (by the printed accession)) (P09529 293-407): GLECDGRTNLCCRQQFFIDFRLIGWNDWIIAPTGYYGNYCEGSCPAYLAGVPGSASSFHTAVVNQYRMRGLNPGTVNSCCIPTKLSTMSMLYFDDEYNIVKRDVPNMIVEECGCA

In turn, “BMPR2 GBD-Fc (WT) (from UniProt Q13873 27-138) (Fc fusion)” displayed an IC50 of inhibition of signalling by 5 nM BMP10 in stably transfected HEK293 BRE (SMAD1/5/8) luciferase reporter cells, 0-400 nM receptor-Fc in assay [1] of 35 nM.

As to “BMP7 (from UniProt P18075 293-431) (ligand)”, in assay [2], the pKd was 7.89, the koff was 0.0071 s⁻¹ and the on-rate (kon) amounted to 520000 M⁻¹ s⁻¹.

“BMPR2-Fc variant Q42R (from UniProt Q13873 27-138) (Fc fusion)” returned an IC50 of inhibition of signalling by 5 nM BMP10 in stably transfected HEK293 reporter cells in assay [3] of 54 nM.

“activin A (from UniProt P08476 311-426) (ligand)”: the negative-log Kd (pKd) is 10.74 in assay [4], 10.05 in assay [5] and 8.02 in assay [2]. The koff in assay [4] came to 1.2e-05 s⁻¹; in assay [5], 0.00019 s⁻¹; in assay [2], 0.0036 s⁻¹. For the same substance, the kon in assay [4] amounted to 600000 M⁻¹ s⁻¹; in assay [5], 2.1e+06 M⁻¹ s⁻¹; in assay [2], 370000 M⁻¹ s⁻¹.

Turning to “BMPR2-Fc variant S107P (from UniProt Q13873 27-138) (Fc fusion)”, the IC50 of inhibition of signalling by 5 nM BMP10 in stably transfected HEK293 reporter cells in assay [3] was 7 nM.

In assay [3], “BMPR2-Fc variant G47D (from UniProt Q13873 27-138) (Fc fusion)” showed an IC50 of inhibition of signalling by 5 nM BMP10 in stably transfected HEK293 reporter cells of 10 nM.

In the case of “BMPR2-Fc variant Q92H (from UniProt Q13873 27-138) (Fc fusion)”, in assay [3], the IC50 of inhibition of signalling by 5 nM BMP10 in stably transfected HEK293 reporter cells amounted to 10 nM.

The substance “ACVR2A GBD-Fc (from UniProt P27037 20-120) (Fc fusion)” showed an IC50 of inhibition of signalling by 5 nM BMP10 in stably transfected HEK293 BRE (SMAD1/5/8) luciferase reporter cells, 0-400 nM receptor-Fc in assay [1] of 187 nM. In assay [6], the IC50 of inhibition of signalling by 5 nM activin B in stably transfected HEK293 SBE (SMAD2/3) luciferase reporter cells, 0-400 nM receptor-Fc was 14 nM.
